# From patent US11738096B2, “Method of detecting diseased or damaged tissue with a pH-triggered polypeptide fluorophore composition” (University of Rhode Island Board of Trustees, priority 2016, dated 2023)
# Where a SMILES comes first, the peptide text is derived from it. The star is where a group is joined. X1 = CC1(C)C(/C=C/C=C/C=C/C=C2/N(CCCCCC(=O)NCCN3C(=O)CC(*)C3=O)c3ccc4ccccc4c3C2(C)C)=[N+](CCCCS(=O)(=O)[O-])c2ccc3ccccc3c21
# Assays:
# [1] = tested on: urothelial carcinoma in human bladder specimens; assay: Ex vivo NIR fluorescence imaging of radical cystectomy bladder specimens, 60 min instillation
# Description: 22 urothelial carcinoma patients that were scheduled for radical cystectomy were selected over a twelve month period. After radical cystectomy, bladder specimens were immediately removed and irrigated 3 times for 5 min via catheter with non-buffered saline and instilled and incubated with 80 ml of 8 μM or 32.8 μg/ml (unless otherwise is stated, see notes to Table 8) of ICG-Var3 construct or ICG-Cys in PBS pH 7.4 containing 10 mM D-glucose for 60 minutes. Then, the unbound constructs were removed by rinsing with 80 ml of saline solution 3-5 times, the bladder was irrigated thoroughly with buffered saline and opened using a Y incision on the anterior wall. Using a da Vinci Si near-infrared fluorescence imaging system (Firefly^R), ex vivo fluorescent and white light imaging of the entire bladder and its parts was performed. The fluorescent spots were marked and standard pathological analysis was carried out to explore the correlation between appearance of fluorescent signal and cancer lesions.
# The specimen was sectioned and submitted after 24 hour fixation in 10% phosphate-buffered formalin according to the standard institutional grossing manual, with emphasis on the marked areas of the bladder. The sections were processed for routine histology into paraffin-embedded blocks. […]
# Statistical parameters were calculated according to the following equations: […]
# [2] = tested on: 4T1 murine mammary carcinoma; assay: Tumor targeting in mice bearing 4T1 tumors; type: in vivo, mouse; conditions: 20 μM, IV, 16 h
# Description: Adult female nude mice and female BALB/cAnNHsd mice (Envigo), 20-25 g in body mass were used in the study. Mouse mammary cancer 4T1 cells were subcutaneously implanted in the right flank (8×10^5 cells/0.1 mL/flank) of adult female BALB/cAnNHsd mice. Rat bladder cancer AY27 cells were subcutaneously implanted in the right flank (8×10^5 cells/0.1 mL/flank) of adult female nude mice. When tumors reached approximately 5-6 mm in diameter, single tail vein injection or single intraperitoneal injection of fluorophore-pHLIP® solutions in PBS were performed. Fluorescent constructs were used in amounts of 100 μL of 40 μM, or 100 μL of 20 μM, or 100 μL of 10 μM, or 100 μL of 5 μM. Imaging of mouse was performed at 16 hours after constructs administration. Skin was removed from the tumor site just before imaging while animal was under gas anesthesia, and mice were euthanized immediately after imaging. Tumor, kidney and liver were harvested, imaged and used for histopathological analysis. Imaging was performed using Stryker clinical imaging instrument. Autofluorescence was established by imaging mouse with no injection of fluorescent constructs (the level of autofluorescence signal was insignificant compared to the signal after the constructs administration).
# [3] = NIR fluorescence imaging of blood vessels and blood flow (ear, leg, blood samples) in mice; type: in vivo, mouse; conditions: blood collected 5-120 min after IV injection
# Description: Adult female nude mice (Envigo), 20 g in body mass were used in the study. Fluorescent constructs were given as a single tail vein injection in amounts of 100 μL of 40 μM in PBS. Imaging of mouse ear and leg was performed at 5, 30, 60, 90 and 120 min after construct administration. At 5, 30, 60, 90 and 120 min after construct administration 5 μL of blood was withdrawn from tail (and mixed with 5 μL of anticoagulating solution to preserve blood) while animal was under anesthesia. Mice were euthanized immediately after last imaging point (120 min). Blood collected from all animals was deposited on the glass slide, dried and imaged. Imaging was performed using Novadaq clinical imaging instrument. Autofluorescence was established by imaging mouse with no injection of fluorescent constructs (the level of autofluorescence signal was insignificant compared to the signal after the constructs administration).
structure (smiles),measurement,setting,value
CC(C)C[C@H](NC(=O)[C@H](Cc1ccc(O)cc1)NC(=O)[C@H](C)NC(=O)[C@H](CCCNC(=N)N)NC(=O)[C@H](Cc1c[nH]c2ccccc12)NC(=O)[C@@H]1CCCN1C(=O)[C@H](CC(N)=O)NC(=O)[C@H](CCC(N)=O)NC(=O)[C@H](CC(=O)O)NC(=O)[C@H](CC(=O)O)NC(=O)[C@H](CSC1CC(=O)N(CCNC(=O)CCCCCN2/C(=C/C=C/C=C/C=C/C3=[N+](CCCCS(=O)(=O)[O-])c4ccc5ccccc5c4C3(C)C)C(C)(C)c3c2ccc2ccccc32)C1=O)NC(=O)[C@H](C)N)C(=O)N[C@@H](CC(=O)O)C(=O)N[C@@H](CC(C)C)C(=O)N[C@@H](CC(C)C)C(=O)N[C@@H](Cc1ccccc1)C(=O)N1CCC[C@H]1C(=O)N[C@H](C(=O)N[C@@H](CC(=O)O)C(=O)N[C@H](C(=O)N[C@@H](CC(C)C)C(=O)N[C@@H](CC(C)C)C(=O)N[C@@H](CC(C)C)C(=O)N[C@@H](CC(=O)O)C(=O)N[C@@H](CC(C)C)C(=O)N[C@@H](CC(C)C)C(=O)N[C@@H](Cc1c[nH]c2ccccc12)C(=O)N[C@@H](C)C(=O)O)[C@@H](C)O)[C@@H](C)O (stereo partly drawn) [ICG-Var3] (H-AC(X1)DDQNPWRAYLDLLFPTDTLLLDLLWA-OH),adverse morphological findings in specimens after incubation,[1],did not show any adverse morphological findings
same,organ of clearance,[2],cleared by the liver
same,fluorescent signal in blood samples,[3],persistence of strong fluorescent signal within 2 hours
